Reference: paper PMC4021333

Target: Dipeptidyl aminopeptidase BII (DAP BII) from Pseudoxanthomonas mexicana WO24, wild type (Pseudoxanthomonas mexicana WO24) (UniProt V5YM14)
Test: enzyme inhibition assay

Sequence of Dipeptidyl aminopeptidase BII (DAP BII) from Pseudoxanthomonas mexicana WO24, wild type (Pseudoxanthomonas mexicana WO24) (V5YM14 25-722): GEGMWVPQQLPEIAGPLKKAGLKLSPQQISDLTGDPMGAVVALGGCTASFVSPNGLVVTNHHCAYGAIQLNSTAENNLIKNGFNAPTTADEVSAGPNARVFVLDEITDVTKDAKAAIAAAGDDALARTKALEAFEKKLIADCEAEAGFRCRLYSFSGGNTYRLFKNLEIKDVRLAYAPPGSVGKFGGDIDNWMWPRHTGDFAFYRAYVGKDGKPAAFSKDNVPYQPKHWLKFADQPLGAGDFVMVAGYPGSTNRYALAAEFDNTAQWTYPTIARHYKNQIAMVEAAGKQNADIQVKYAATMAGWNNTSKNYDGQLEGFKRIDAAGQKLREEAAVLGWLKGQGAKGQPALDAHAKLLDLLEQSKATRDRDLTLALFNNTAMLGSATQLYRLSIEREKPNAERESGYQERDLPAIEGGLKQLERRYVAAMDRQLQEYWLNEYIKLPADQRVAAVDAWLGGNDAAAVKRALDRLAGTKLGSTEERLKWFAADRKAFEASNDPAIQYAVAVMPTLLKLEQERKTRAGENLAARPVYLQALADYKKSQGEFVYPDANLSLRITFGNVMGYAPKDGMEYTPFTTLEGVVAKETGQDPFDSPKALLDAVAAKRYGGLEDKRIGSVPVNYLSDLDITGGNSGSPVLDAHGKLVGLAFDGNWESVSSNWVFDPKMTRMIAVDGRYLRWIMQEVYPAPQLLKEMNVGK

dipeptide Val-Tyr
Ki: 410 µM
